Results taken from the supplement of paper PMC9732359.
± gives the uncertainty stated by the source.

Assay: protein stability index of a GFP-peptide fusion (yeast GPS) (PSI 1-4); higher = more stable; sorted into four equal gates, so the index is relative within each strain
Procedure, shortened: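 Tiled yeast protein peptides of 17 residues were each joined downstream of GFP, on plasmids that also express Cherry. The pooled library was maintained in yeast, and mid-log cultures in leucine-free medium were sorted into four equal gates on the GFP/Cherry ratio. Plasmids from every gate were amplified by PCR and sequenced on Illumina, with barcodes linking reads to strains. The protein stability index of a peptide is its gate-number-weighted read frequency summed over the gates.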

Sequence	protein stability index (doa10∆)	protein stability index (pdr5∆)	protein stability index (san1∆)	protein stability index (ubr1∆)
PDAKIQVRRDIPSAAFN [YMR129W/POM152]	2.17 ± 0.061	1.89 ± 0.098	1.63 ± 0.11	3.24 ± 0.088
FMLSDDEGMESIEMEEE [RRI2]	2.59 ± 0.22	3.78 ± 0.29	3.38 ± 0.097	–
FKATHILDFGPGGASGL [FAS1]	2.75 ± 0.08	3.43 ± 0.14	–	2.96 ± 0.21
SLEEIIAEGQKKFATVP [RPP2B]	2.77 ± 0.061	2.89 ± 0.058	2.93 ± 0.061	2.59 ± 0.04
VMLRLLLVVIFKKTLRS [SRB4]	1.59 ± 0.068	1.56 ± 0.057	1.25 ± 0.098	1.23 ± 0.088
VTDSSLLKLLTRLVQLR [GRR1]	2.4 ± 0.054	1.7 ± 0.056	2.41 ± 0.074	1.84 ± 0.045
PNFDWDLCSSVLSQFER [ROX3]	3.12 ± 0.079	2.8 ± 0.095	2.6 ± 0.08	2.59 ± 0.067
QGVYGAVYETLISRMIF [BRR2]	2.46 ± 0.11	1.81 ± 0.093	1.36 ± 0.15	1.67 ± 0.045
TPDPSELAAKEEPAKEE [FAS2]	2.718 ± 0.024	2.821 ± 0.024	2.693 ± 0.026	2.684 ± 0.019
YLHQNWVLHRDLKPANI [SSN3]	2.23 ± 0.12	2.74 ± 0.13	2.72 ± 0.23	2.38 ± 0.14
WFLDHNYIENMNEMCKK [RPN8]	3.54 ± 0.18	3.26 ± 0.12	2.93 ± 0.077	3.2 ± 0.083
CNSIINKLGALKTNFET [RPB11]	2.57 ± 0.089	2.42 ± 0.099	2.68 ± 0.088	3.05 ± 0.17
VTVEQLRSIYHQFHDIL [NSL1]	2.41 ± 0.11	1.9 ± 0.073	1.31 ± 0.16	1.81 ± 0.066
DSLKKLLPQWDDDQIES [ARP9]	3.32 ± 0.14	3.17 ± 0.087	2.83 ± 0.071	3.17 ± 0.081
AICRYANVIKALAFCEI [RRP4]	1.42 ± 0.069	2.04 ± 0.099	1.66 ± 0.18	2.22 ± 0.072
IMKFQSLSDNDLAVCAT [ECM29]	2.03 ± 0.076	2.46 ± 0.067	2.69 ± 0.062	2.77 ± 0.064
GVLLRDAHGVTQARVIT [RPS13]	2.4 ± 0.075	2.57 ± 0.093	2.85 ± 0.14	2.27 ± 0.082
QPTGLLKGLNGFPSAPQ [YMR153W/NUP53]	3.39 ± 0.14	3.3 ± 0.12	3.25 ± 0.11	3.18 ± 0.1
TTTTANINEVKKASDLV [NUT1]	3.01 ± 0.06	3.07 ± 0.067	2.84 ± 0.067	2.62 ± 0.074
LFEQIGIRIKGKIVGFD [SME1]	1.92 ± 0.12	1.85 ± 0.1	1.48 ± 0.2	1.89 ± 0.096
DVIAWKNVLANSIWGSS [ITC1]	2.83 ± 0.14	2.95 ± 0.088	3.49 ± 0.12	3.28 ± 0.072
VKLMKNITDYETHPDNS [BRR2]	2.37 ± 0.054	2.42 ± 0.042	2.54 ± 0.049	2.09 ± 0.04
ENANAANNGAAFSPLTT [MED2]	3.1 ± 0.11	2.92 ± 0.1	2.88 ± 0.1	2.79 ± 0.057
SKVIIKFLQVMQKHGYI [RPS22A]	1.95 ± 0.038	1.84 ± 0.038	1.76 ± 0.066	2 ± 0.039
GSQFIVVSLKEGMFANA [SMC2]	–	3.64 ± 0.24	3.44 ± 0.2	3.4 ± 0.057
EDILYYSTCPSETDLND [SRB8]	2.29 ± 0.12	1.56 ± 0.099	2.14 ± 0.11	1.92 ± 0.1

Sequence	protein stability index (doa10∆)	protein stability index (pdr5∆)	protein stability index (san1∆)	protein stability index (ubr1∆)
RRLPMTMFTAEQSELLK [SNF2]	2.99 ± 0.073	3.08 ± 0.073	2.83 ± 0.053	2.91 ± 0.055
LRYVIMKNPDVEFCGYS [RPC19]	2.2 ± 0.14	2.07 ± 0.081	2.3 ± 0.15	2.87 ± 0.091
RNADELSSYQKKIIKCD [PRE5]	2.25 ± 0.058	2.08 ± 0.084	2.58 ± 0.086	1.65 ± 0.049
HALYLAPSGIRMHLAPA [SSN2]	1.32 ± 0.085	2.05 ± 0.085	2.09 ± 0.13	2.04 ± 0.061
MSDFVPIDAGLNEAPFP [MCD1]	3 ± 0.07	2.56 ± 0.05	2.92 ± 0.051	2.97 ± 0.047
ELENNEFTENELNVDSM [ITC1]	3.38 ± 0.07	3.21 ± 0.073	3.33 ± 0.065	3.27 ± 0.069
ADKPFTRLTAYQELAYR [YML031W/NDC1]	2.52 ± 0.12	3.17 ± 0.11	3.06 ± 0.18	3 ± 0.098
DLSSAASASGAAGAGAA [FAS2]	1.78 ± 0.13	1.51 ± 0.11	–	1.66 ± 0.19
GSKMEAKNEDDPAHSLN [AAR2]	2.34 ± 0.14	1.27 ± 0.13	1.23 ± 0.26	1.14 ± 0.15
QQQLVNQMKVAPIPKQL [GAL11]	2.94 ± 0.046	2.96 ± 0.041	2.974 ± 0.026	2.63 ± 0.038
EIYKQLNDRQEEISRLQ [YIL149C/MLP2]	3.42 ± 0.08	3.57 ± 0.078	3.6 ± 0.041	3.38 ± 0.07
CWPKDSRMRLIRQDVNL [PRP8]	2.52 ± 0.081	2.68 ± 0.09	2.72 ± 0.067	2.76 ± 0.12
PNIHQNLLPKKSAKTAK [HTA2]	2.88 ± 0.19	3.09 ± 0.29	–	3 ± 0.14
FEAQIDSVEFIFQAKRN [RPN10]	2.32 ± 0.11	2.67 ± 0.082	2.45 ± 0.13	2.66 ± 0.1
SQPTNSTTTSLHVPNLQ [SMC4]	1.99 ± 0.043	2.4 ± 0.035	2.21 ± 0.052	2.03 ± 0.027
ADITDGNNTELTKTTVN [YCG1]	3.19 ± 0.078	3.22 ± 0.068	3.33 ± 0.052	3.09 ± 0.053
LADYIVEVLLVNYNSDM [NUT1]	1.28 ± 0.047	1.35 ± 0.037	1.39 ± 0.14	1.2 ± 0.039
GIGALFTQQELQKQMGI [RPC34]	2.93 ± 0.11	3.39 ± 0.095	3.29 ± 0.085	2.69 ± 0.11
LGVPRIKEIINASKVIS [RPO31]	3.03 ± 0.1	2.59 ± 0.2	1.49 ± 0.12	1.71 ± 0.24
VLEKKTRQASDLASSKE [RPN5]	3.38 ± 0.23	3.41 ± 0.15	–	2.97 ± 0.24
DQKIWPYLEKYPEYDQI [SSN3]	3.5 ± 0.12	3.08 ± 0.09	3.11 ± 0.065	3.43 ± 0.1
PSENDVFYRMQQLRRAL [RPO31]	2.03 ± 0.056	1.94 ± 0.046	2.5 ± 0.1	2.14 ± 0.067
FGHLKLALPVFHIGYFK [RPO31]	1.17 ± 0.073	1.22 ± 0.062	1.24 ± 0.13	1.13 ± 0.043
EEKPGLIITRKAFKNNS [SMC4]	2.89 ± 0.086	2.88 ± 0.097	2.82 ± 0.064	2.94 ± 0.079
LNSYHIKNGRIYFTVPN [RGR1]	2.57 ± 0.054	2.21 ± 0.035	2.19 ± 0.056	2.33 ± 0.037
